Test [1] concerns the target Feline FcRn complex (FcRn-alpha subunit and beta-microglobulin) (feline). Briefly: SPR (Biacore), feline FcRn captured on SA chip, IgG flowed over, pH 6. For orientation: In SPR one partner is held on a chip, and binding of the other changes the refractive index at the surface.
Test [2] has the same target. Briefly: SPR (Biacore), feline FcRn captured on SA chip, IgG flowed over, pH 7.4.

Substitutions are numbered along the chain they refer to. Names and notes keep the numbering of the source.

Usually Kd stands for the equilibrium constant for the complex coming apart. The low end stands for higher affinity, the high end for lower affinity.

B1: feline IgG1a Fc mutant S428M, S434F (antibody, part only; not given: variable domains and light chain, not shown: another chain or arm of the molecule; small tags and cut ends)
constant: ASTTAPSVFPLAPSCGTTSGATVALACLVLGYFPEPVTVSWNSGALTSGVHTFPAVLQASGLYSLSSMVTVPSSRWLSDTFTCNVAHPPSNTKVDKTVRKTDHPPGPKPCDCPKCPPPEMLGGPSIFIFPPKPKDTLSISRTPEVTCLVVDLGPDDSDVQITWFVDNTQVYTAKTSPREEQFNSTYRVVSVLPILHQDWLKGKEFKCKVNSKSLPSPIERTISKAKGQPHEPQVYVLPPAQEELSRNKVSVTCLIKSFHPPDIAVEWEITGQPEPENNYRTTPPQLDSDGTYFVYSKLSVDRSHWQRGNTYTCSVMHEALHFHHTQKSLTQSPGK
For B1, the figures for the Kd in test [1] and in test [2] were 1.21 nM and 38.2 nM, respectively.

B2: feline IgG1a Fc mutant S428M, S434W (antibody, part only; not given: Variable domains, not shown: another chain or arm of the molecule; small tags and cut ends)
constant: B1 constant with F322W
Take B2: the dissociation constant (Kd) was 0.937 nM in test [1] and 25.3 nM in test [2].

B3: feline IgG1a Fc mutant S428Y, S434Y (antibody, part only; not given: variable domains and light chain, not shown: another chain or arm of the molecule; small tags and cut ends)
constant: B1 constant with M316Y, F322Y
Take B3: the Kd is 1.12 nM in test [1] and 24.1 nM in test [2].

B4: feline IgG1a Fc mutant S428Y, S434F (antibody, part only; not given: Variable domains, not shown: another chain or arm of the molecule; small tags and cut ends)
constant: B1 constant with M316Y
Turning to B4, the equilibrium dissociation constant (Kd) in test [1] was found to be 1.57 nM; in test [2], 39.7 nM.

B5: feline IgG1a Fc mutant S428Y, S434W (antibody, part only; not given: variable domains and light chain, not shown: another chain or arm of the molecule; small tags and cut ends)
constant: B1 constant with M316Y, F322W
With B5, the results for the Kd in test [1] and in test [2] were 1.39 nM and 24.1 nM, respectively.

B6: feline IgG1a Fc mutant Q311K, S428Y (antibody, part only; not given: Variable domains, not shown: another chain or arm of the molecule)
constant: B1 constant with Q197K, M316Y, F322S
Regarding B6, the Kd was found to be 3.31 nM in test [1] and 35.9 nM in test [2].

Source of the values: patent US20240400708A1.
